Changes are numbered by the printed parent chain. In names and notes the source's numbering stands.
B1: OB-1 laccase (evolved variant of PM1 laccase, PM1Lac) (basidiomycete PM1; A260P/A482T/D302E/H229Y/S245G/S447N/V183A) (protein)
chain: SIGPVADLTISNGAVSPDGFSRQAILVNDVFPSPLITGNKGDRFQLNVIDNMTNHTMLKSTSIHWHGFFQHGTNWADGPAFVNQCPISTGHAFLYDFQVPDQAGTFWYHSHLSTQYCDGLRGPIVVYDPQDPHKSLYDVDDDSTVITLADWYHLAAKVGPAAPTADATLINGLGRSINTLNADLAVITVTKGKRYRFRLVSLSCDPNYTFSIDGHSLTVIEADGVNLKPQTVDSIQIFPAQRYSFVLNADQDVDNYWIRALPNSGTRNFDGGVNSAILRYEGAAPVEPTTTQTPSTQPLVESALTTLEGTAAPGNPTPGGVDLALNMAFGFAGGRFTINGASFTPPTVPVLLQILSGAQSAQDLLPSGSVYSLPANADIEISLPATSAAPGFPHPFHLHGHTFAVVRSAGSSTYNYANPVYRDVVNTGSPGDNVTIRFRTDNPGPWFLHCHIDFHLEAGFTVVMAEDIPDVAATNPVPQAWSDLCPTYDALSPDDQ
notes: mature laccase secreted from S. cerevisiae BJ5465 (pJRoC30) with evolved alpha-factor prepro-leader carrying V[alpha10]D, N[alpha23]K, A[alpha87]T; purified to homogeneity
B2: OB-1 laccase (evolved variant of PM1 laccase, PM1Lac) (basidiomycete PM1; A260P/A261G/A482T/D302E/H229Y/S245G/S447N/V183A) (protein)
chain: B1 chain with A240G
notes: as for B1

How the values were obtained:
Assay in all cases: purified protein
Conditions in all cases: sodium phosphate/citrate buffer 100 mM, pH 4.0
purified protein [1] = substrate: COc1ccccc1O
purified protein [2] = substrate: CCn1c(=NN=c2sc3cc(S(=O)(=O)O)ccc3n2CC)sc2cc(S(=O)(=O)O)ccc21; type: biochemical, basidiomycete PM1
purified protein [3] = substrate: COc1cccc(OC)c1O; type: biochemical, basidiomycete PM1
purified protein [4] = substrate: COc1cc(/C=C/C(=O)O)cc(OC)c1O; type: biochemical, basidiomycete PM1

| Protein | Km (purified protein [1]) [mM] | kcat (purified protein [1]) [s⁻¹] | kcat/Km (purified protein [1]) [M⁻¹ s⁻¹] | Km (purified protein [2]) [µM] | kcat (purified protein [2]) [s⁻¹] | kcat/Km (purified protein [2]) [M⁻¹ s⁻¹] | Km (purified protein [3]) [mM] | kcat (purified protein [3]) [s⁻¹] | kcat/Km (purified protein [3]) [M⁻¹ s⁻¹] | Km (purified protein [4]) [mM] | kcat (purified protein [4]) [s⁻¹] | kcat/Km (purified protein [4]) [M⁻¹ s⁻¹] |
| --- | --- | --- | --- | --- | --- | --- | --- | --- | --- | --- | --- | --- |
| B1 | 2.6 ± 0.4 | 117 | 44600 | 7 ± 0.6 | 690 ± 20.2 | 1.06e+08 | 0.15 ± 0.01 | 565 ± 13 | 3.84e+06 | 0.32 ± 0.02 | 741 ± 14.1 | 2.29e+06 |
| B2 | 3.4 ± 0.4 | 171 | 50300 | 9 ± 0.9 | 1330 ± 42.3 | 1.4e+08 | 0.23 ± 0.01 | 1130 ± 18.4 | 5.56e+06 | 0.45 ± 0.06 | 1430 ± 65.2 | 3.18e+06 |

Source: article PMC7218104, “Consensus Design of an Evolved High-Redox Potential Laccase” (Frontiers in Bioengineering and Biotechnology, 2020)
